This is an account of results in FireProtDB (doi:10.1093/protein/15.10.817).

The conditions of this data set: Rattus norvegicus, pH 7, Thermal, CD, HEPES 10 mM, whole UniProt chain shown.

B1: High mobility group protein B1 wild type, P63159 (protein)
chain: MGKGDPKKPRGKMSSYAFFVQTCREEHKKKHPDASVNFSEFSKKCSERWKTMSAKEKGKFEDMAKADKARYEREMKTYIPPKGETKKKFKDPNAPKRPPSAFFLFCSEYRPKIKGEHPGLSIGDVAKKLGEMWNNTAADDKQPYEKKAAKLKEKYEKDIAAYRAKGKPDAAKKGVVKAEKSKKKKEEEDDEEDEEDEEEEEEEEDEDEEEDDDDE
B1: the melting temperature (Tm) worked out at 40.6 °C and the “unfolding enthalpy (van 't Hoff)” value stood at 35.7 kcal/mol. Under “20 °C, NiSO4 1 mM”, the unfolding free energy is 2.7 kcal/mol. Also, for the setting “NiSO4 1 mM”, the Tm amounted to 40.6 °C and the “unfolding enthalpy (van 't Hoff)” value was 35.7 kcal/mol.
